± gives the standard deviation of the averaged measurements.
Tested on: ATP
Test: switch fluorescence ratio, 500 uM ATP over buffer (Cy3 cluster intensity, sum of 5 cycles each) (fold (ratio)); higher = stronger signal-on switching upon ATP binding; sequences stand for … in TCGTCGGCAGCGTCAGATGTGTATAAGAGACAGTTTTTTTTTTTTTTTTTTTTTTTTT…TC
Settings: aptamer strand: ATP DNA aptamer (quencher-CACCTGGGGGAGTATTGCGGAGGAAGG + anchor), 100 nM annealed; ATP concentration: 500 uM
Method in brief: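 The fluorescence ratio divides summed target-cycle Cy3 intensity by summed buffer-cycle Cy3 intensity for each cluster and is averaged per switch-domain sequence. Cy3-labelled switching-strand clusters on a modified Illumina MiSeq flow-cell were annealed to 100 nM quencher-labelled ATP aptamer, then imaged in selection buffer and again after 15 min with 500 uM ATP at 22 °C. Five such cycles were run, with NaOH stripping and re-annealing between them, and clusters outside 100-1000 RFU were excluded.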
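Further: ATP exposure 15 min at 22 °C before imaging.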

Row | Sequence | switch fluorescence ratio
1 | CGGTTGTGAC | 0.994 ± 0.027
2 | CGGTTGTTGG | 0.9787 ± 0.0058
3 | CGGTTTATAA | 0.981 ± 0.013
4 | CGGTTTCAGT | 0.996 ± 0.023
5 | CGGTTTCGTG | 0.995 ± 0.018
6 | CGGTTTTATC | 1.01 ± 0.034
7 | CGGTTTTCAT | 0.984 ± 0.019
8 | CGGTTTTTT | 1 ± 0.021
9 | CGTAAAAAT | 1.01 ± 0.027
10 | CGTAAAAATG | 1.01 ± 0.024
11 | CGTAAAATTT | 1.05 ± 0.12
12 | CGTAAACGCT | 1.04 ± 0.024
13 | CGTAAACTAG | 0.97 ± 0.016
14 | CGTAAAGCCT | 0.991 ± 0.02
15 | CGTAAAGGAG | 0.992 ± 0.052
16 | CGTAACTGTT | 0.995 ± 0.091
17 | CGTAACTTGG | 1.01 ± 0.029
18 | CGTAATGCTT | 1.17 ± 0.032
19 | CGTAATGGGA | 1.04 ± 0.025
20 | CGTAATTTCT | 1.06 ± 0.038
21 | CGTAATTTTA | 1.01 ± 0.027
22 | CGTACCGGGT | 1.01 ± 0.022
23 | CGTACGGCAG | 0.9978 ± 0.0052
24 | CGTACTCCTT | 1.12 ± 0.025
25 | CGTACTTAGC | 1.069 ± 0.0034
26 | CGTAGAGAAA | 0.991 ± 0.044

Row | Sequence | switch fluorescence ratio
27 | CGTAGCTAGA | 1.89 ± 0.047
28 | CGTAGGAGTC | 0.963 ± 0.15
29 | CGTAGGCCGA | 0.952 ± 0.068
30 | CGTAGGTATG | 0.983 ± 0.023
31 | CGTAGTAAAT | 1.062 ± 0.0087
32 | CGTAGTATAT | 1.25 ± 0.043
33 | CGTATAAGTT | 0.937 ± 0.018
34 | CGTATCAGGG | 1.01 ± 0.032
35 | CGTATGAAAT | 0.9985 ± 0.0089
36 | CGTATGAGGG | 0.9679 ± 0.0066
37 | CGTATGGTTG | 1.06 ± 0.09
38 | CGTATTAGAG | 1.01 ± 0.048
39 | CGTATTAGCG | 0.952 ± 0.025
40 | CGTATTATAA | 1.01 ± 0.023
41 | CGTATTCTAG | 1 ± 0.023
42 | CGTATTTTGG | 0.986 ± 0.032
43 | CGTCAATCT | 1.53 ± 0.061
44 | CGTCAGGCTT | 0.987 ± 0.052
45 | CGTCATATGG | 1.07 ± 0.012
46 | CGTCATCGGG | 0.973 ± 0.029
47 | CGTCATGCGT | 0.964 ± 0.025
48 | CGTCATTTAC | 1.63 ± 0.074
49 | CGTCATTTGG | 0.9769 ± 0.0044
50 | CGTCCAGTTC | 1.08 ± 0.023
51 | CGTCCCCGAG | 1.054 ± 0.0087
52 | CGTCCTAGGG | 1.04 ± 0.043

Row | Sequence | switch fluorescence ratio
53 | CGTCGAGGCG | 0.971 ± 0.035
54 | CGTCGGAAAG | 1.01 ± 0.024
55 | CGTCGGAGTC | 1.04 ± 0.031
56 | CGTCGGGGG | 0.982 ± 0.044
57 | CGTCGGGGGA | 1.01 ± 0.027
58 | CGTCGGGGGC | 1.005 ± 0.0096
59 | CGTCGTGACA | 1.03 ± 0.029
60 | CGTCTAGTCG | 1 ± 0.025
61 | CGTCTATTTG | 0.993 ± 0.023
62 | CGTCTCGAAC | 1 ± 0.014
63 | CGTCTCTTAG | 0.995 ± 0.027
64 | CGTCTGATTG | 1.01 ± 0.025
65 | CGTCTGGCGA | 1.02 ± 0.014
66 | CGTCTTGGAA | 1.01 ± 0.013
67 | CGTGACCGCC | 1.08 ± 0.028
68 | CGTGACCGGA | 0.972 ± 0.014
69 | CGTGACCTGT | 0.996 ± 0.022
70 | CGTGAGGCAG | 0.978 ± 0.056
71 | CGTGAGGGGC | 1.028 ± 0.01
72 | CGTGATGATG | 0.982 ± 0.06
73 | CGTGCATTGA | 1.03 ± 0.022
74 | CGTGCTGGTG | 1.03 ± 0.022
75 | CGTGCTTAGT | 1.02 ± 0.022
76 | CGTGGAGAGC | 1.06 ± 0.043
77 | CGTGGGATAG | 1.04 ± 0.036
78 | CGTGGGATTG | 1.012 ± 0.004

Row | Sequence | switch fluorescence ratio
79 | CGTGGGGCAG | 1.01 ± 0.024
80 | CGTGGGGGGT | 1.01 ± 0.018
81 | CGTGGGGTTG | 1.01 ± 0.054
82 | CGTGGGTCTT | 1.04 ± 0.03
83 | CGTGGTATCA | 0.982 ± 0.077
84 | CGTGGTCATC | 0.9766 ± 0.0073
85 | CGTGGTCGTC | 0.991 ± 0.03
86 | CGTGGTCGTG | 0.9672 ± 0.00049
87 | CGTGTAGTGG | 0.984 ± 0.018
88 | CGTGTATTCG | 1.01 ± 0.031
89 | CGTGTCCAGG | 1.3 ± 0.024
90 | CGTGTCCGTG | 1.01 ± 0.011
91 | CGTGTCGACA | 0.9631 ± 0.0068
92 | CGTGTCGCTG | 0.971 ± 0.024
93 | CGTGTGCATG | 1.06 ± 0.13
94 | CGTGTGGGAC | 1.0136 ± 0.00016
95 | CGTGTGGTTT | 1.03 ± 0.037
96 | CGTGTGTACA | 0.98 ± 0.01
97 | CGTGTGTGGC | 1.02 ± 0.0032
98 | CGTGTTGGCT | 1.072 ± 0.0032
99 | CGTGTTGGTC | 1 ± 0.012
100 | CGTGTTTTTT | 0.991 ± 0.029
101 | CGTTAAATGT | 0.998 ± 0.022
102 | CGTTAAGTTA | 0.974 ± 0.012
103 | CGTTAATTAG | 1.02 ± 0.042
104 | CGTTAATTTA | 1.01 ± 0.034

Row | Sequence | switch fluorescence ratio
105 | CGTTACAAGC | 1.1 ± 0.086
106 | CGTTACACAA | 1.04 ± 0.035
107 | CGTTAGCAGA | 1.19 ± 0.086
108 | CGTTAGCATT | 1.17 ± 0.027
109 | CGTTAGGATG | 0.984 ± 0.011
110 | CGTTATGAGG | 0.991 ± 0.011
111 | CGTTATTAGC | 1.033 ± 0.01
112 | CGTTATTGCT | 1.016 ± 0.0039
113 | CGTTCATGGG | 0.993 ± 0.017
114 | CGTTCCGGGC | 1.2 ± 0.12
115 | CGTTCGCGCG | 1.02 ± 0.023
116 | CGTTCGTGGG | 0.953 ± 0.018
117 | CGTTCTATTC | 1.11 ± 0.17
118 | CGTTGAGACC | 0.995 ± 0.019
119 | CGTTGAGTAT | 0.981 ± 0.019
120 | CGTTGAGTTG | 0.986 ± 0.032
121 | CGTTGAGTTT | 0.994 ± 0.047
122 | CGTTGCACAT | 1.07 ± 0.016
123 | CGTTGCGAGT | 0.9726 ± 0.009
124 | CGTTGCGCTA | 1.1 ± 0.012
125 | CGTTGCTACA | 1.01 ± 0.019
126 | CGTTGGAAGC | 0.982 ± 0.018
127 | CGTTGGAATC | 1.12 ± 0.014
128 | CGTTGGCATA | 1.149 ± 0.0065
129 | CGTTGGCGGT | 1.02 ± 0.043
130 | CGTTGGGATC | 0.99281 ± 0.00021

Row | Sequence | switch fluorescence ratio
131 | CGTTGGGGGA | 0.997 ± 0.029
132 | CGTTGGTGCG | 0.98 ± 0.059
133 | CGTTGGTTCC | 1.034 ± 0.0058
134 | CGTTGTGGGG | 0.966 ± 0.023
135 | CGTTTAAATC | 0.986 ± 0.013
136 | CGTTTACCGT | 0.983 ± 0.019
137 | CGTTTATAGG | 1.015 ± 0.009
138 | CGTTTATAGT | 1.02 ± 0.039
139 | CGTTTCATTT | 0.995 ± 0.027
140 | CGTTTCCCGG | 0.992 ± 0.031
141 | CGTTTCGTCT | 1.05 ± 0.024
142 | CGTTTGAAGC | 0.978 ± 0.059
143 | CGTTTGATTA | 0.989 ± 0.017
144 | CGTTTGGAAT | 1.03 ± 0.051
145 | CGTTTGGACA | 0.9893 ± 0.0051
146 | CGTTTGGCGG | 0.987 ± 0.064
147 | CGTTTGTATA | 0.987 ± 0.015
148 | CGTTTGTGAT | 0.9993 ± 0.0076
149 | CGTTTGTGCG | 1.01 ± 0.053
150 | CGTTTGTTAT | 1.05 ± 0.04
151 | CGTTTGTTCG | 1.03 ± 0.071
152 | CGTTTTGAGG | 0.96 ± 0.034
153 | CGTTTTGGCA | 1.02 ± 0.027

From the supplement of paper PMC10126150
